The values that follow come from the supplement of paper PMC9112550, “Optimization of the antimicrobial peptide Bac7 by deep mutational scanning” (BMC Biology, 2022).

In this data set the test system is Escherichia coli TOP10. Put plainly: shrunken log2 fold change of peptide-encoding DNA abundance (4.5 h post-induction vs induction); higher = less antimicrobial activity (less host growth inhibition). The conditions noted are these: time post-induction: 4.5 h; library: site-saturation at positions 5, 18, 19, 20.
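Further: peptides expressed intracellularly from a pBAD plasmid library in pooled LB shake-flask culture, induced with 0.3% L-arabinose, DNA abundance read by NGS, three biological replicates, DESeq2 with apeglm shrinkage.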

Regarding RRIRHRPPRLPRPRPRPCSSPRP, the “shrunken log2 fold change” value was determined as 0.032.
As for RRIRPRPPRLPRPRPRPWCVPRP, the figure is -0.133; as for RRIRYRPPRLPRPRPRPYFLPRP, -1.23.
With RRIRERPPRLPRPRPRPCQMPRP, the “shrunken log2 fold change” value is -0.161.
As for RRIRYRPPRLPRPRPRPLIVPRP, the figure is -0.895.
On to RRIRTRPPRLPRPRPRPAQQPRP, for which the “shrunken log2 fold change” value turned out to be 0.233.
In the case of RRIRQRPPRLPRPRPRPYQMPRP, the “shrunken log2 fold change” value was -0.00133.
RRIRFRPPRLPRPRPRPFVPPRP: the “shrunken log2 fold change” value is -0.668.
Turning to RRIRWRPPRLPRPRPRPHCRPRP, the “shrunken log2 fold change” value was 0.0889.
Consider RRIRDRPPRLPRPRPRPLIMPRP, for which the “shrunken log2 fold change” value is -0.0616.
As for RRIRWRPPRLPRPRPRPNPGPRP, the figure is 0.108.
As for RRIRDRPPRLPRPRPRPNLQPRP, the figure is -0.71; as for RRIRSRPPRLPRPRPRPTKSPRP, 0.0789; as for RRIRTRPPRLPRPRPRPTLQPRP, 0.336.
Take RRIRYRPPRLPRPRPRPCMAPRP: the “shrunken log2 fold change” value was -0.117.
As for RRIRARPPRLPRPRPRPLWPPRP, the figure is 0.646; as for RRIRQRPPRLPRPRPRPHGAPRP, 0.0316.
As for RRIRWRPPRLPRPRPRPAKYPRP, the figure is -0.183; as for RRIRYRPPRLPRPRPRPGICPRP, -0.179.
As for RRIRHRPPRLPRPRPRPIFGPRP, the figure is -0.0177; as for RRIRVRPPRLPRPRPRPNDMPRP, -0.337; as for RRIRKRPPRLPRPRPRPPIMPRP, -0.0359.
With RRIRCRPPRLPRPRPRPIHNPRP, the “shrunken log2 fold change” value is -0.725.
As for RRIRTRPPRLPRPRPRPGWNPRP, the figure is -0.039.
As for RRIRGRPPRLPRPRPRPVAGPRP, the figure is 1.12.
With RRIRKRPPRLPRPRPRPWAQPRP, the “shrunken log2 fold change” value is 0.315.
As for RRIRPRPPRLPRPRPRPIPVPRP, the figure is -0.402; as for RRIRHRPPRLPRPRPRPMYPPRP, -0.304; as for RRIRNRPPRLPRPRPRPISPPRP, -0.13.
As for RRIRNRPPRLPRPRPRPHYRPRP, the figure is -0.0488; as for RRIRTRPPRLPRPRPRPAKYPRP, -0.355.
Turning to RRIRKRPPRLPRPRPRPNRWPRP, the “shrunken log2 fold change” value was 0.398.
As for RRIRKRPPRLPRPRPRPEMIPRP, the figure is 0.0131; as for RRIRPRPPRLPRPRPRPQKQPRP, -0.294; as for RRIRIRPPRLPRPRPRPRNDPRP, -0.543.
As for RRIRARPPRLPRPRPRPNTLPRP, the figure is -0.202; as for RRIRKRPPRLPRPRPRPPVQPRP, 0.83.
Consider RRIRVRPPRLPRPRPRPHWFPRP, for which the “shrunken log2 fold change” value is -0.11.
With RRIRLRPPRLPRPRPRPILCPRP, the “shrunken log2 fold change” value was -0.152.
As for RRIRMRPPRLPRPRPRPLEHPRP, the figure is 0.0245.
As for RRIRVRPPRLPRPRPRPVGTPRP, the figure is -0.0358; as for RRIRYRPPRLPRPRPRPWIEPRP, -0.866; as for RRIRWRPPRLPRPRPRPQEFPRP, 0.00161.
As for RRIRKRPPRLPRPRPRPPKMPRP, the figure is 0.383; as for RRIRYRPPRLPRPRPRPTHCPRP, 0.0602.
On to RRIRNRPPRLPRPRPRPGTKPRP, for which the “shrunken log2 fold change” value was 0.0372.
On to RRIRSRPPRLPRPRPRPWKAPRP, for which the “shrunken log2 fold change” value was -0.00809.
As for RRIRWRPPRLPRPRPRPGFPPRP, the “shrunken log2 fold change” value was -0.0683.
With RRIRLRPPRLPRPRPRPTISPRP, the “shrunken log2 fold change” value was -0.375.
As for RRIRHRPPRLPRPRPRPTYQPRP, the figure is 0.0668; as for RRIRDRPPRLPRPRPRPLYFPRP, -0.601.
For RRIRFRPPRLPRPRPRPGGEPRP, the “shrunken log2 fold change” value is 0.271.
As for RRIRWRPPRLPRPRPRPDWWPRP, the figure is 0.0352.
As for RRIRGRPPRLPRPRPRPASSPRP, the figure is 0.653; as for RRIRVRPPRLPRPRPRPACSPRP, -0.0142; as for RRIRCRPPRLPRPRPRPPSGPRP, 0.233.
As for RRIRQRPPRLPRPRPRPKNGPRP, the figure is -0.159.
Take RRIRYRPPRLPRPRPRPATAPRP: the “shrunken log2 fold change” value came to 0.132.
As for RRIRLRPPRLPRPRPRPEEYPRP, the figure is 0.0401.
Turning to RRIRTRPPRLPRPRPRPGITPRP, the “shrunken log2 fold change” value was -0.104.
As for RRIRTRPPRLPRPRPRPQISPRP, the figure is -0.024; as for RRIRVRPPRLPRPRPRPTLIPRP, 0.0816; as for RRIRIRPPRLPRPRPRPCIGPRP, -0.632.
Consider RRIRERPPRLPRPRPRPESEPRP, for which the “shrunken log2 fold change” value came out at 0.0931.
As for RRIRRRPPRLPRPRPRPSECPRP, the figure is -0.039.
As for RRIRQRPPRLPRPRPRPPNPPRP, the figure is 0.109; as for RRIRTRPPRLPRPRPRPKFVPRP, 0.368.
Turning to RRIRIRPPRLPRPRPRPIWNPRP, the “shrunken log2 fold change” value is -0.263.
As for RRIRWRPPRLPRPRPRPLDIPRP, the figure is 1.52; as for RRIRDRPPRLPRPRPRPYIIPRP, -0.758; as for RRIRDRPPRLPRPRPRPWSLPRP, 0.0709.
As for RRIRARPPRLPRPRPRPENAPRP, the figure is 0.687.
As for RRIRHRPPRLPRPRPRPSDHPRP, the figure is -0.548; as for RRIRARPPRLPRPRPRPQELPRP, 0.0199; as for RRIRWRPPRLPRPRPRPHYGPRP, -0.0711.
On to RRIRIRPPRLPRPRPRPLHMPRP, for which the “shrunken log2 fold change” value is -0.571.
As for RRIRIRPPRLPRPRPRPDHWPRP, the figure is 0.0629.
As for RRIRVRPPRLPRPRPRPCNYPRP, the figure is -0.119; as for RRIRFRPPRLPRPRPRPNGAPRP, -0.105.
As for RRIRERPPRLPRPRPRPSRVPRP, the figure is 0.0314; as for RRIRPRPPRLPRPRPRPQWFPRP, -0.0872.
For the sequence RRIRARPPRLPRPRPRPTFVPRP, the “shrunken log2 fold change” value turned out to be 0.203.
As for RRIRVRPPRLPRPRPRPKDWPRP, the figure is 0.0589.
For the sequence RRIRYRPPRLPRPRPRPTYWPRP, the “shrunken log2 fold change” value is -0.318.
For RRIRCRPPRLPRPRPRPFRHPRP, the “shrunken log2 fold change” value was -0.143.
RRIRQRPPRLPRPRPRPHNTPRP: the “shrunken log2 fold change” value is -0.902.
As for RRIRGRPPRLPRPRPRPMWTPRP, the figure is 0.311; as for RRIRWRPPRLPRPRPRPTEWPRP, 0.327.
As for RRIRFRPPRLPRPRPRPGWNPRP, the figure is 0.0411; as for RRIRKRPPRLPRPRPRPWEEPRP, -0.000921; as for RRIRGRPPRLPRPRPRPDDDPRP, 0.0442.
